Measured values reported in US20240100176A1 (Eli Lilly, published 2024).

T1: human IL-4Rα on cells (human PBMC B cells and CD4+ T cells, Daudi cells, HEK-Blue IL-4/IL-13 cells, myeloid … (human, UniProt P24394 26-825))
T1 sequence: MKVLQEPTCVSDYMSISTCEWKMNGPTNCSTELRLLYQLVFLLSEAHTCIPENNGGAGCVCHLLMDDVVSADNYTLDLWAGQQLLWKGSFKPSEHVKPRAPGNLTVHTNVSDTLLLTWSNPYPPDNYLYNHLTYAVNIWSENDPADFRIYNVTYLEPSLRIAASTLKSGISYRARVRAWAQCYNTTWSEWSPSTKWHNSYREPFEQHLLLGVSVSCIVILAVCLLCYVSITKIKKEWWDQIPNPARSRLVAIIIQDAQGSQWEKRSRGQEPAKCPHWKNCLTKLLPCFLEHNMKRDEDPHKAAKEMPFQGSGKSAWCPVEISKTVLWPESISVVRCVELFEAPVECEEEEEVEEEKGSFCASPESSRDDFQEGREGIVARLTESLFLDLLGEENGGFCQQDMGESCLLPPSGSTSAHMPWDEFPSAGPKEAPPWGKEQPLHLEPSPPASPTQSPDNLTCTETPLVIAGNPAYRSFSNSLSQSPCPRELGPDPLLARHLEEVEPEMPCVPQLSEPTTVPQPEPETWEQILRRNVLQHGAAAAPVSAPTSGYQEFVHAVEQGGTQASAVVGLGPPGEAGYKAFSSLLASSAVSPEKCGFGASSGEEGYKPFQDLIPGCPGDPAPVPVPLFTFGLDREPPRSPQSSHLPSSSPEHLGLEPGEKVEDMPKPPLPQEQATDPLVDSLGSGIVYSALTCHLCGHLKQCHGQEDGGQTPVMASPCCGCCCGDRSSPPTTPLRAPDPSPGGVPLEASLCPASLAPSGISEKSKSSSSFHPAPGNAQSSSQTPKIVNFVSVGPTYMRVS

T2: human FcγRIIb (CD32b) extracellular domain (human, UniProt P31994 43-217)
T2 construct: extracellular domain
T2 sequence (looked up): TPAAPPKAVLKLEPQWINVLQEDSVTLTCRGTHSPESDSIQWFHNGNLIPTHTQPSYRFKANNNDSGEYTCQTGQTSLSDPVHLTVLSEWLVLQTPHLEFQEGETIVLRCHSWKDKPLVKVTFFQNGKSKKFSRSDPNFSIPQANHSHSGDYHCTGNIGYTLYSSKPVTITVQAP

B1: anti-human IL-4Rα antibody Ab1 (antibody, human IgG4 S228P, kappa)
heavy: QVQLVESGGGLVQPGGSLRLSCVASGFTFSHSSMNWVRQAPGKGLEWVSYISRATGAVYYADSVKGRFTISRDNAKNSLYLQMNSLRDEDTAVYYCAREPVFDYWGQGTLVTVSSASTKGPCVFPLAPCSRSTSESTAALGCLVKDYFPEPVTVSWNSGALTSGVHTFPAVLQSSGLYSLSSVVTVPSSSLGTKTYTCNVDHKPSNTKVDKRVESKYGPPCPPCPAPEFLGGPSVFLFPPKPKDTLMISRTPEVTCVVVDVSQEDPEVKFNWYVDGVEVHNAKTKPREEQFNSTYRVVSVLTVLHQDWLNGKEYKCKVSNKGLPSSIEKTISKAKGQPREPQVYTLPPSREEMTKNQVSLTCLVKGFYPSDICVEWESNGQPENNYKTTPPVLDSDGSFFLYSRLTVDKSRWQQGNVFSCSVMHEALHNHYTQKSLSLSLG
light: DIQMTQSPSAMSASVGDRVTITCRASQDISNYLAWFQQKPGKVPTRLIYAASSLQSGVPSRFSGSGSGTEFTLTISSLQPEDFATYYCLQWSSYPRTFGQGTKVEIKRTVAAPSVFIFPPSDEQLKSGTASVVCLLNNFYPREAKVQWKVDNALQSGNSQESVTEQDSKDSTYSLSSTLTLSKADYEKHKVYACEVTHQGLSSPVTKSFNRGEC
notes: human kappa light chain; also called anti-human IL-4Rα Ab1; unconjugated Ab1
B2: anti-human IL-4Rα Ab1 GC conjugate of Example 1b (n=4) (antibody, human IgG4 S228P, kappa)
heavy: B1 heavy
light: B1 light
modifications: glucocorticoid receptor agonist payload-linker (GC-L, Preparation 8) conjugated to the engineered cysteines at the 124 and 378 position of the heavy chain (EU numbering); n is 4 (average DAR 4.17 by RP-HPLC, 3.85 by TOF MS)

Key:
[1] = molecular target: T3, hexahistidine tagged human IL-4Rα ECD T108R (human, UniProt P24394 26-232); assay: capture ELISA: Ab1 on anti-human IgG Fc, His-tagged receptor at 0.04 µg/mL, anti-His HRP
T3 construct: also called D108R; not shown: hexahistidine tag

[2] = molecular target: T1, human IL-4Rα on cells (human PBMC B …); assay: flow cytometry on human PBMCs, CD20 B cells, Alexa Fluor 647 labelled antibody, percent IL-4Rα positive cells
Protocol: Example 3b. Binding to B cells and T cells: Binding of the exemplified anti-human IL-4Rα antibodies to B cells and T cells was tested in a Fluorescence Activated Cell Sorting (FACS) assay. […] Freshly isolated cells PBMCs were resuspended at 2×10⁶ cells/mL and allowed to rest for 15 minutes at room temperature, then plated at 100 μL/well into a round bottom 96-well plate (COSTAR®) and washed with FACS buffer (PBS containing 2% fetal bovine serum from Corning®). Exemplified anti-human IL-4Rα antibodies and the respective control IgG antibodies conjugated to Alexa Fluor® 647 according to manufacturer's protocol (Thermo Fisher Scientific) were added to the wells at 66.67 nM and diluted 4-fold in duplicate. Equivalent volume of 2× antibody cocktail containing: Human TruStain FcX™. FITC anti-human CD3 Antibody, Alexa Fluor® 700 anti-human CD4 Antibody (all from Biolegend®) and CD20 Monoclonal Antibody (2H7), PerCP-Cyanine5.5 (Thermo Fisher Scientific) was then added to the wells. Cells were incubated at 4° C. for 30 minutes, washed twice with FACS buffer and resuspended in a final volume of 100 μL FACS buffer. Viability dye, Sytox™ blue (Thermo Fisher Scientific), was added and the samples were analyzed via a flow cytometer (LSRFortessa™ X-20; BD BIOSCIENCES). Data analysis was performed using FlowJo software and statistical analysis was performed using GraphPad Prism 9. […]

[3] = molecular target: T1, human IL-4Rα on cells (human PBMC B …); assay: cell-based or functional assay
[4] = molecular target: T2, human FcγRIIb (CD32b) extracellular …; assay: SPR (Biacore), antibody captured on protein A, FcγR ECD as analyte, steady state, 25 °C
Protocol: Unreacted sites were blocked with a 7 minute injection of ethanolamine at 10 μL/minute. Injections of 2×10 μL of glycine, pH 1.5, was used to remove any noncovalently associated protein. Running buffer was 1×HBS-EP+(TEKNOVA, P/N H8022). The FcγR extracellular domains (ECDs)-FcγRI (CD64), FcγRIIA_131R, and FcγRIIA_131H (CD32a), FcγRIIIA_158V, FcγRIIIA_158F (CD16a), and FcγRIIb (CD32b) were produced from stable CHO cell expression and purified using IgG Sepharose and size exclusion chromatography. For FcγRI binding, antibodies were diluted to […] in running buffer, and approximately 150 RU of each antibody was captured in FCs 2 through 4 (RU captured). FC1 was the reference FC, therefore no antibody was captured in FC1. […] Duplicate injections of each concentration were injected over all FCs at 40 μL/minute for 120 seconds followed by a 1200 second dissociation phase. Regeneration was performed by injecting 15 μL of 10 mM glycine, pH 1.5, at 30 μL/minute over all FCs. Reference-subtracted data was collected as FC2 FC1, FC3-FC1, and FC4-FC1 and the measurements were obtained at 25° C. The affinity (KD) was calculated using either steady state equilibrium analysis with the Scrubber 2 Biacore Evaluation Software or a “1:1 (Langmuir) binding” model in BIA Evaluation. For FcγRIIa, FcγRIIb, and FcγRIIIa binding, antibodies were diluted to 5 μg/mL in running buffer, and approximately 500 RU of each antibody was captured in FCs 2 through 4). FC1 was the reference FC. […] Duplicate injections of each concentration were injected over all FCs at 40 μL/minute for 60 seconds followed by a 120 second dissociation phase. Regeneration was performed by injecting 15 μL of 10 mM glycine, pH 1.5, at 30 μL/minute over all FCs. Reference-subtracted data was collected as FC2-FC1, FC3-FC1, and FC4-FC1, and the measurements were obtained at 25° C. The affinity (KD) was calculated using the steady state equilibrium analysis with the Scrubber 2 Biacore Evaluation Software. Each receptor was assayed at least two times.

| Binder | ELISA (OD450) [1] [OD450] | EC50 [2] [nM] | Inhibition of IL-4 induced B cell proliferation, IC50 [3] [nM] | Kd [4] [nM] |
| --- | --- | --- | --- | --- |
| B1 | 1.41 | 0.15 | – | – |
| B2 | – | – | 1.41 | 1960 |
